Data taken from publication PMC11036078, “PD‐1 inhibition with retifanlimab and/or arginase inhibition with INCB001158 in Japanese patients with solid tumors: A phase I study” (Cancer Medicine, 2024).
Values joined by “and” are separate entries in the source; they are usually repeats but may differ in a detail not shown here. Equal entries are not always repeated. “Also recorded” adds a separate entry of the source. Where two headings read alike, the source gives them in different places.

Experiments:
[1] = Safety and tolerability (TEAEs, DLTs, irAEs; NCI CTCAE v5.0), phase Ib POD1UM-104; conditions: in vivo
Description: This was a phase Ib, open‐label, multicenter study (POD1UM‐104 [NCT03910530]). The study was conducted in 2 parts. In Part 1, patients received single‐agent retifanlimab or escalating doses of single‐agent INCB001158 to confirm the RP2D of each agent. Single‐agent dosing was performed to comply with local regulations. In Part 2, patients received the combination of retifanlimab and INCB001158 at their respective RP2D determined in Part 1, to further explore safety and preliminary evidence of clinical activity. Treatment cycles in Part 1 and Part 2 were 28 days, and patients could receive treatment for up to 2 years, or until disease progression, unacceptable toxicity, death, or patient withdrawal.
In Part 1, 6 patients received retifanlimab 500 mg every 4 weeks (Q4W), given as an i.v. infusion over 60 min; this dose was based on the RP2D determined from global studies. The starting dose of INCB001158 was 75 mg taken orally twice daily (BID). Dose escalation of INCB001158 followed a standard 3 + 3 design; if 75 mg BID was deemed to be tolerable in at least 3 patients, a 100‐mg BID dose level cohort comprising at least 3 patients would be opened.
DLTs were assessed by the investigator according to the National Cancer Institute (NCI) Common Terminology Criteria for Adverse Events (CTCAE) v5.0 criteria (Table S1).
The primary endpoints of the study were safety, tolerability, DLTs, and RP2D of single‐agent retifanlimab, INCB001158, and the combination. Adverse events (AEs) were graded by NCI CTCAE v5.0, and immune‐related adverse events (irAEs) were monitored as AEs of special interest. Physical examinations, monitoring of vital signs, electrocardiograms, and laboratory assessments were conducted throughout the study.
(§1) Safety and efficacy analyses were conducted in the full analysis set, which comprised all enrolled patients who received at least 1 dose of the study drug.
(§2) Safety data were summarized using descriptive statistics. PK parameters were summarized by study part, treatment regimen, cohort, dose levels, and/or visit. ORR and DCR were reported with their exact 95% confidence intervals (CIs); DOR was based on the Kaplan–Meier estimate of the distribution function, and the estimated median along with 95% CI was reported. Statistical analyses were performed using SAS® software v9.4 or later (SAS Institute Inc., Cary, NC, USA).

[2] = Retifanlimab serum pharmacokinetics (electrochemiluminescence immunoassay, noncompartmental analysis); assay type: in vivo, Japanese patients; conditions: for Retifanlimab tmax: median (min, max)
Description: (§3) Pharmacokinetics of single‐agent retifanlimab and INCB001158, and the combination, were secondary endpoints of the study. The detection of anti‐drug antibodies (ADAs) was an exploratory endpoint. Blood samples for retifanlimab PK assessments were taken on days 1 (−2 h pre‐dose, end of infusion, and 6 h post‐dose), 2, 8, and 15 (no specified time) of cycle 1, day 1 of cycles 2–8 (−2 h pre‐dose, and end of infusion on cycles 2 and 6 only), and day 1 of every 4 cycles after cycle 8 (−2 h pre‐dose). Samples for ADA assessment were collected at the same time as for PK analysis, and an additional sample was collected at safety follow‐up on day 15 (no specified time). Blood samples for INCB001158 were collected pre‐dose, 0.5, 1, 2, 4, 6, and 8 h post‐dose on days 1 and 15 of cycle 1, 12 h post‐dose on day 1 of cycle 1, and pre‐dose on days 2 and 8 for cycle 1, and day 1 of cycle 2. Serum concentrations of retifanlimab were determined using an electrochemiluminescence immunoassay method, and plasma concentrations of INCB001158 were measured using a validated liquid chromatography with tandem mass spectrometry assay (Incyte Corporation, Wilmington, DE, USA). ADAs against retifanlimab were monitored using a bridging immunoassay (Incyte Corporation).
Pharmacokinetics parameters were derived from concentrations versus time data using model‐independent noncompartmental analysis methods (WinNonlin v8.2, Certara USA Inc., Princeton, NJ, USA), and included maximum observed serum or plasma concentration (C max), serum or plasma concentration observed at the end of the dosing interval (C tau), time to maximum observed serum or plasma concentration (t max), area under the serum or plasma concentration–time curve (AUC) from time 0 to the end of the dosing interval (AUCtau), AUC from time 0 to infinity (AUC0‐∞), apparent terminal‐phase disposition half‐life, clearance, and volume of distribution. […]

[3] = tested on: ADAs against retifanlimab; assay: Anti-drug antibodies against retifanlimab (bridging immunoassay); conditions: samples from 12 Japanese patients
Description: as §3

[4] = Western patients; ref POD1UM‐101 (NCT03059823); cited from earlier work
[5] = tested on: advanced solid tumors; conditions: cited from earlier work
[6] = tested on: advanced solid tumors; assay: Clinical activity by investigator per RECIST v1.1 (ORR, DCR, DOR); assay type: in vivo, Japanese patients
Description: Preliminary clinical activity of single‐agent retifanlimab and INCB001158, and the combination, was an additional secondary endpoint. Diagnostic imaging was performed by computed tomography scan every 8 ± 1 weeks. Clinical activity was assessed by measuring overall response rate (ORR), defined as the percentage of patients experiencing a complete or partial response (CR or PR) as determined by the investigator according to Response Evaluation Criteria in Solid Tumors (RECIST) v1.1; disease control rate (DCR), defined as the percentage of patients maintaining either an objective response or stable disease (SD) for at least 12 weeks per RECIST v1.1; and duration of response (DOR), defined as the time from first observed response until onset of progressive disease (PD) as determined by the investigator according to RECIST v1.1 or death from any cause.
as §1, §2

[7] = first dose, in combination with INCB001158, n = 3
[8] = first dose, monotherapy 500 mg Q4W, n = 6
[9] = first dose, POD1UM-104 vs POD1UM‐101
[10] = RECIST v1.1, investigator, n = 6 per group
[11] = RECIST v1.1, investigator, n = 6 per group, listed as retifanlimab

Retifanlimab: humanized, hinge‐stabilized immunoglobulin G4κ monoclonal antibody targeting PD‐1
Grade 3 AEs reported but not occurring during the treatment window [1]: lymphocyte count decreased | Retifanlimab infusion interruption because of a TEAE [1]: 1 (16.7) n (%) | Serious TEAE after data cutoff [1]: myocarditis | Serious TEAEs (terms) [1]: grade 3 femoral neck fracture (n = 1), grade 3 ileus and pyelonephritis (n = 1) | TEAE: ALT increased [1]: 1 (16.7) n (%) | TEAE: AST increased [1]: 1 (16.7) n (%) | TEAE: Amylase increased [1]: 2 (33.3) n (%) | TEAE: Anemia [1]: 1 (16.7) n (%) | TEAE: Blood creatinine increased [1]: 1 (16.7) n (%) | TEAE: Diarrhea [1]: 1 (16.7) n (%) | TEAE: Nausea [1]: 1 (16.7) n (%) | TEAE: Tumor pain [1]: 0 n (%) | TRAEs reported (terms) [1]: infusion‐related reactions (n = 1), pruritus (n = 1), rash (n = 1), and 1 patient who reported multiple TRAEs, consisting of anemia worsening, fatigue, diarrhea, pruritus, rash, elevated lipase, increased alanine aminotransferase (ALT), and increased aspartate aminotransferase (AST) | Treatment discontinuation because of a TEAE [1]: 0 n (%) | Retifanlimab tmax ([2]; 500 mg Q4W i.v. monotherapy, first dose, POD1UM-104, n = 6): 1.9 (1.1, 7.1) h | Geometric mean clearance normalized for body weight ([2]; Japanese patients [POD1UM‐104]): 3.1 mL/day/kg | Geometric mean volume of distribution normalized for body weight ([2]; Japanese patients [POD1UM‐104]): 0.0955 L/kg | Mean Ctau at steady state higher in Japanese than Western patients ([2]; POD1UM-104 vs POD1UM‐101): 43% | Drug–drug interaction (retifanlimab PK, combination vs monotherapy cohorts) ([2]; combination cohort): no drug–drug interaction | Retifanlimab tmax ([2]; first dose, 500 mg Q4W in combination with INCB001158, n = 3): 0.82 (0.78, 6.0) h | Retifanlimab geometric mean AUCtau [2, 7]: 2280 mg·days/L | Retifanlimab geometric mean Cmax [2, 7]: 187 µg/mL | Retifanlimab geometric mean Ctau [2, 7]: 19.0 mg/L | Retifanlimab median tmax [2, 7]: 0.82 h | Retifanlimab geometric mean AUC0‐∞ [2, 8]: 2990 mg·days/L | Retifanlimab geometric mean AUCtau [2, 8]: 1910 mg·days/L | Retifanlimab geometric mean Cmax [2, 8]: 209 µg/mL | Retifanlimab geometric mean Ctau at the end of the 4‐week dosing period [2, 8]: 33.9 mg/L | Retifanlimab geometric mean clearance [2, 8]: 0.167 L/day | Retifanlimab geometric mean half‐life [2, 8]: 509 h | Retifanlimab half‐life, range [2, 8]: 386 to 730 h | Retifanlimab median tmax [2, 8]: 1.9 h | Retifanlimab volume of distribution [2, 8]: 5.12 L | Geometric mean AUC0‐∞ higher in Japanese than Western patients [2, 9]: 66% | Geometric mean AUCtau higher in Japanese than Western patients [2, 9]: 47% | Geometric mean Cmax higher in Japanese than Western patients [2, 9]: 31% | Retifanlimab trough concentrations from cycle 1 to cycle 7 ([2]; monotherapy, 3 patients with available data): generally increased | Retifanlimab ADAs detected [3]: No retifanlimab ADAs were detected; also recorded: No ADAs toward retifanlimab were observed | Geometric mean clearance normalized for body weight [4]: 4.05 mL/day/kg | Geometric mean volume of distribution normalized for body weight [4]: 0.0857 L/kg | Patients with a response ([5]; first‐in‐human study, endometrial cancer, 3 of 29 patients): 10% | Patients with a response ([5]; first‐in‐human study, non‐small cell lung cancer, 6 of 26 patients): 23% | Patients with SD ([5]; phase II study, SCAC): 35% | Patients with a response ([5]; phase II study, SCAC): 14% | Patients with an objective response ([5]; recurrent MSI‐H or dMMR endometrial cancer, 33 of 76 patients): 43% | Median DOR ([6]; Kaplan–Meier, 95% CI, 6.8 months‐not estimable, median follow‐up 11.6 months): not estimable | Best overall response: Complete response [6, 10]: 1 (16.7) n (%) | Best overall response: Partial response [6, 10]: 1 (16.7) n (%) | Best overall response: Progressive disease [6, 10]: 3 (50.0) n (%) | Best overall response: Stable disease [6, 10]: 1 (16.7) n (%) | Best overall response: Complete response [6, 11]: 1 n (%) | Best overall response: Partial response [6, 11]: 1 n (%) | Best overall response: Stable disease [6, 11]: 1 n (%) | ORR ([6]; RECIST v1.1, n = 6, 95% CI, 4.3–77.7): 33.3% and 33% | DCR ([6]; RECIST v1.1, n = 6 per group, 95% CI, 11.8–88.2): 50% | DOR of the patient with CR ([6]; endometrial cancer, ongoing at data cutoff): 16.4 months | DOR of the patient with PR ([6]; lung cancer): 6.8 months
